Assays:
[1] = One-pot two-enzyme (OP2E) sialylation with NmCSS, GalNAcαSer as acceptor; format: biochemical; conditions: 1 equivalent of Neu5Ac and 1.5 equivalents of CTP
Excerpt: (§1) White bars: GalNAcαSer was used as an acceptor with 1 equivalent of Neu5Ac and 1.5 equivalents of CTP. Grey bars: GalNAcαSer was used as an acceptor with 2.5 equivalents of Neu5Ac and 5.0 equivalents of CTP. Black bars: GalNAcαThr was used as an acceptor with 2.5 equivalents of Neu5Ac and 5.0 equivalents of CTP.
In this system, CTP and Neu5Ac were used by NmCSS for the formation of CMP-Neu5Ac in situ (see also, Yu and Chen, et al. Bioorg. Med. Chem. 2004, 12, 6427-6435). CMP-Neu5Ac was used as the donor substrate for Psp26ST(15-501)-His6 or its mutants. […] For example, using 1 equivalent of Neu5Ac and 1.5 equivalents of CTP in the one-pot two-enzyme (OP2E) reaction (white bars in FIG. 6) improved the GalNAcαSer α2-6-sialylation reaction yields from less than 6% (1 equivalent CMP-Neu5Ac was used) (FIG. 5B) to 32-51% for W365A, W365G, W365S mutants. Similarly, the OP2E reaction improved the GalNAcαSer α2-6-sialylation reaction yields from 40% and 37% to 75% and 67% for A366G mutant and the wild-type enzyme, respectively. Increasing the concentrations of Neu5Ac and CTP to 2.5 and 5.0 equivalents further improved the reaction yields to more than 67% for Psp26ST(15-501)-His6 and its mutants (black bars in FIG. 6). […]

[2] = Expression and Ni2+-NTA purification of soluble recombinant protein; SDS-PAGE of lysates; parameters: species or system Escherichia coli; conditions: for expression level, purified by Ni2+-NTA column: per liter of Escherichia coli culture, repeated expression in duplicates or triplicates
Protocol: The plasmids containing mutant genes were transformed into Escherichia coli BL21 (DE3). The Escherichia coli cells were cultured in LB-rich media (10 g L^−1 tryptone, 5 g L^−1 yeast extract, and 10 g L^−1 NaCl) supplemented with ampicillin (100 μg mL^−1). Overexpression of the mutants was achieved by adding 0.3 mM of isopropyl-1-thio-β-D-galactopyranoside (IPTG) to the Escherichia coli culture when its OD600 nm reached 0.8. The induced culture was incubated at 20° C. for 20 h with vigorous shaking at 250 rpm in a C25KC incubator shaker (New Brunswick Scientific, Edison, N.J.). His6-tagged mutant proteins were purified from the cell lysate. To obtain cell lysate, the cell pellet harvested by centrifugation at 4000 rpm for 2 h was resuspended in 20 mL (for cells obtained from one liter culture) of lysis buffer (pH 8.0, 100 mM Tris-HCl containing 0.1% Triton X-100). Lysozyme (50 μg mL^−1) and DNaseI (3 μg mL^−1) were added to the resuspended cells followed by shaking at 37° C. for 60 min. The lysate was obtained as the supernatant after centrifugation at 11,000 rpm for 20 min. Purification of His6-tagged proteins from the lysate was achieved using 10 mL column packed with Ni^2+-NTA agarose. The column was pre-equilibrated with 8 column volumes of binding buffer (5 mM imidazole, 0.5 M NaCl, 50 mM Tris-HCl pH 7.5). After loading the sample, the column was washed with 8 column volumes of the binding and 8 column volumes of washing buffer (20 mM imidazole, 0.5 M NaCl, 50 mM Tris-HCl pH 7.5). Protein was eluted using 8 column volumes of the elute buffer (200 mM imidazole, 0.5 M NaCl, 50 mM Tris-HCl pH 7.5). The fractions containing the purified enzyme were collected and stored at 4° C. Protein concentrations were quantified by bicinchoninic acid (BCA) protein assay kit according to manufacturer's instruction using bovine serum albumin (BSA) as the protein standard. The wild-type enzyme and A366G mutant were expressed, purified, and quantified in duplicates or triplets for at least three times. […]

[3] = Sialyltransferase activity assay, GalNAcαSer as acceptor (HPLC); format: biochemical; conditions: 1 equivalent CMP-Neu5Ac was used; no NmCSS
Protocol: When LacβMU was used as an acceptor, the assay was performed in duplicate in 10 μL of Tris-HCl buffer (100 mM, pH 8.0) containing CMP-Neu5Ac (1 mM), LacβMU (1 mM), MgCl2 (20 mM), wild-type Psp2,6ST(15-501)-His6 or its mutant (0.3 μM). When an α-GalNAc-terminated acceptor was used, the assay was performed in duplicate in 10 μL of Tris-HCl buffer (100 mM, pH 8.0 for GalNAcαSer/Thr) or NaOAc-HOAc (100 mM, […]), MgCl2 (20 mM), wild-type Psp2,6ST(15-501)-His6 or its mutant (3.0 μM). Reactions were allowed to proceed at 20° C. for 20 min and stopped by adding 10 μL of cold ethanol. The analysis of sialylated product conversion was performed using the HPLC system as described above for sialyltransferase activity assay. The 4-methylumbelliferone (MU)-labeled fluorescent acceptor and the product formed were detected with excitation at 325 nm and emission at 372 nm. The 2-aminobenzoic acid (2AA)-labeled fluorescent acceptors and the products formed were detected with excitation at 315 nm and emission at 400 nm. The 9-fluorenylmethylcarbamate (Fmoc)-labeled fluorescent acceptors and the products formed were detected with excitation at 262 nm and emission at 313 nm.

[4] = One-pot two-enzyme (OP2E) sialylation with NmCSS, GalNAcαThr as acceptor; format: biochemical; conditions: 2.5 equivalents of Neu5Ac and 5.0 equivalents of CTP
Excerpt: as §1
In this system, CTP and Neu5Ac were used by NmCSS for the formation of CMP-Neu5Ac in situ (see also, Yu and Chen, et al. Bioorg. Med. Chem. 2004, 12, 6427-6435). CMP-Neu5Ac was used as the donor substrate for Psp26ST(15-501)-His6 or its mutants. […] For example, using 1 equivalent of Neu5Ac and 1.5 equivalents of CTP in the one-pot two-enzyme (OP2E) reaction (white bars in FIG. 6) improved the GalNAcαSer α2-6-sialylation reaction yields from less than 6% (1 equivalent CMP-Neu5Ac was used) (FIG. 5B) to 32-51% for W365A, W365G, W365S mutants. Similarly, the OP2E reaction improved the GalNAcαSer α2-6-sialylation reaction yields from 40% and 37% to 75% and 67% for A366G mutant and the wild-type enzyme, respectively. Increasing the concentrations of Neu5Ac and CTP to 2.5 and 5.0 equivalents further improved the reaction yields to more than 67% for Psp26ST(15-501)-His6 and its mutants ([…]). […] Therefore, in situ generation of CMP-Neu5Ac, the sugar nucleotide donor for sialyltransferases, was proven an efficient method to enhance the yields for sialylation reactions catalyzed not only by the wild-type enzymes but also sialyltransferase mutants.

Molecule	GalNAcαSer α2-6-sialylation reaction yield, OP2E [1] [%]	expression level, purified by Ni2+-NTA column [2]	GalNAcαSer α2-6-sialylation reaction yield, sialyltransferase alone (FIG. 5B) [3] [%]	yield of Neu5Acα2-6GalNAcαThr from GalNAcαThr, OP2E [4] [%]	expression level ([2]; general description) [mg/L]
Psp26ST(15-501)-His6: recombinant Photobacterium sp. JH-ISH-224 α2-6-sialyltransferase, residues 15-501, C-terminal His6, wild-type; SEQ ID NO: 23 (protein, C-terminal His6; Synthetic Psp26ST(15-501) WILD TYPE) CNNSEENTQSIIKNDINKTIIDEEYVNLEPINQSNISFTKHSWVQTCGTQQLLTEQNKESISLSVVAPRLDDDEKYCFDFNGVSNKGEKYITKVTLNVVAPSLEVYVDHASLPTLQQLMDIIKSEEENPTAQRYIAWGRIVPTDEQMKELNITSFALINNHTPADLVQEIVKQAQTKHRLNVKLSSNTAHSFDNLVPILKELNSFNNVTVTNIDLYDDGSAEYVNLYNWRDTLNKTDNLKIGKDYLEDVINGINEDTSNTGTSSVYNWQKLYPANYHFLRKDYLTLEPSLHELRDYIGDSLKQMQWDGFKKFNSKQQELFLSIVNFDKQKLQNEYNSSNLPNFVFTGTTVWAGNHEREYYAKQQINVINNAINESSPHYLGNSYDLFFKGHPGGGIINTLIMQNYPSMVDIPSKISFEVLMMTDMLPDAVAGIASSLYFTIPAEKIKFIVFTSTETITDRETALRSPLVQVMIKLGIVKEENVLFWA	67	18-40 mg per liter	37	88	–
A366G: Photobacterium sp. JH-ISH-224 α2-6-sialyltransferase residues 15-501, A366G point mutation, C-terminal His6; SEQ ID NO: 2 (protein, C-terminal His6; Synthetic Psp26ST(15-501) A366G) CNNSEENTQSIIKNDINKTIIDEEYVNLEPINQSNISFTKHSWVQTCGTQQLLTEQNKESISLSVVAPRLDDDEKYCFDFNGVSNKGEKYITKVTLNVVAPSLEVYVDHASLPTLQQLMDIIKSEEENPTAQRYIAWGRIVPTDEQMKELNITSFALINNHTPADLVQEIVKQAQTKHRLNVKLSSNTAHSFDNLVPILKELNSFNNVTVTNIDLYDDGSAEYVNLYNWRDTLNKTDNLKIGKDYLEDVINGINEDTSNTGTSSVYNWQKLYPANYHFLRKDYLTLEPSLHELRDYIGDSLKQMQWDGFKKFNSKQQELFLSIVNFDKQKLQNEYNSSNLPNFVFTGTTVWGGNHEREYYAKQQINVINNAINESSPHYLGNSYDLFFKGHPGGGIINTLIMQNYPSMVDIPSKISFEVLMMTDMLPDAVAGIASSLYFTIPAEKIKFIVFTSTETITDRETALRSPLVQVMIKLGIVKEENVLFWA	75	72-110 mg per liter	40	93	72 to 110
